± gives the standard deviation.

The nature of this data set: protein stability index of a GFP-peptide fusion (GPS, HEK-293T) (PSI 1-6); higher = more stable.
Setting [1] is: treatment: DMSO, c terminus: a fixed tail appended.
Where [2] appears, read: treatment: MLN4924 1 uM, 8 h, c terminus: a fixed tail appended.
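Further: 24-mer peptide tiles fused after GFP, lentivirally expressed, FACS-sorted into six equal bins by GFP/DsRed ratio, decoded by Illumina sequencing, PSI is the read-weighted mean bin number.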

EVRYYLRQIVSGLKYLHEQEILHR [PLK2]: the protein stability index amounted to 3.11 ± 1 under setting [1] and 2.91 ± 0.58 under setting [2].
With SKYCYGPQGSRSPYIPPHAALCLE [FKBP8], the protein stability index under setting [1] worked out at 2.46 ± 0.54 and the protein stability index under setting [2] came out at 2.74 ± 0.3.
For VWDASRAPRGTPDPGLGEGPALWL [PLEKHN1], in that order: 2.74 ± 0.25 and 2.79 ± 0.38.
For SHRAAGSGVSDYDYLDLDKMSLYS [TRIM9] the same measures were 3.4 ± 0.21 and 3.44 ± 0.17.
For QVQQVEVEATVKPELTAALRDIRA [PRPH] the same measures were 4.02 ± 0.31 and 4.32 ± 0.18.
Consider QHVPEELDLSSSSQMSPLSLYGEN [ATF6], for which the protein stability index under setting [1] was determined as 4.97 ± 0.19 and the protein stability index under setting [2] is 5 ± 0.18.
In the case of NNFDNLDFDLDLVPWESDIWDINN [ATF6], the protein stability index by setting is: under setting [1], 3.2 ± 0.21; under setting [2], 3.46 ± 0.11.
Consider AEIATASASASTTTTVTAVTAEVD [SNAP91], for which the protein stability index came to 5.62 ± 0.23 under setting [1] and 5.47 ± 0.39 under setting [2].
For HTTIVATRHYRPPEVILELGWAQP [CLK3] the same measures were 2.26 ± 0.26 and 2.23 ± 0.16.
For AAVSRKKKRRMGTYSLVPKKKTKV [EHMT1] the same measures were 4.29 ± 0.32 and 4.32 ± 0.24.
For AILLDAHHKTYDPTYSDFCQFRPP [VDR] the same measures were 2.31 ± 0.2 and 2.34 ± 0.29.
As to LRTRGRTRGWVQTLARMSRRTRGP [C6orf223], the protein stability index is, setting by setting: under setting [1], 3.6 ± 0.23; under setting [2], 3.97 ± 0.27.
For LLAKMFGAKDSELASQNKPLWQCY [PDS5B], in that order: 2.57 ± 0.66 and 2.3 ± 0.31.
For GGGGGGGGTSSNNSEEEEDDDDEE [ANKRD17] the same measures were 5.68 ± 0.21 and 5.55 ± 0.34.
For VLDILTRLPESVERLTGVSISQVN [FLOT1] the same measures were 2.43 ± 0.23 and 2.3 ± 0.48.
Turning to LQLLHECSPSQMDLLCAQLQLPQL [FANCE], the protein stability index runs as follows: under setting [1], 2.33 ± 0.27; under setting [2], 2.49 ± 0.11.
For HYYKENDPSVRLKIASLLGLLSKT [INTS4], in that order: 2.05 ± 0.31 and 2.18 ± 0.23.
For LQEVPTGLDSISHDSANCELPLLT [ETS2], in that order: 4.71 ± 0.12 and 4.92 ± 0.42.
As for EPYPSQLLKPIPEYSPEEESEPPA [TRAF3IP2], the protein stability index is, setting by setting: under setting [1], 5.45 ± 0.12; under setting [2], 5.66 ± 0.18.
For EKALASILLQDHIRDLDVVVVSVA [ATL3], in that order: 2.52 ± 0.65 and 2.21 ± 0.53.
For QKLREESAARVVLTSLLACLPAGP [DUSP5] the same measures were 2.15 ± 0.26 and 2.06 ± 0.13.
For the sequence FCNISLFEDLPLQEPQSPQKLNPG [PLAGL1], the protein stability index is 3 ± 0.2 under setting [1] and 3.21 ± 0.25 under setting [2].
For the sequence SSIPCSGSLDGRELSRQVRSSVEL [PPEF2], the protein stability index came to 4.298 ± 0.036 under setting [1] and 4.17 ± 0.13 under setting [2].
For IAEDGTKEIESQGSIPGFLISSGM [TAF7L] the same measures were 4.25 ± 0.28 and 4.21 ± 0.38.
For RADSFKVSYQLADGGEPQSVQVDG [TNXB] the same measures were 4.89 ± 0.15 and 5.01 ± 0.22.
For ADVNAQSSTGNTALTYACAGGYVD [ANKRD17], in that order: 4.21 ± 0.39 and 4.49 ± 0.16.
On to IRERILGPSHPDTSYYIRYRGAVY [FEM1C], for which the protein stability index reads like this: under setting [1], 2.22 ± 0.27; under setting [2], 2.1 ± 0.34.
For GNPSTNSRVTASSGITIPKPPKPP [SMARCE1] the same measures were 4.67 ± 0.32 and 4.7 ± 0.13.
For TGAACRLVEAVLSGEVLNGAAVVR [HDAC6], in that order: 2.13 ± 0.35 and 2.27 ± 0.28.
For SENKIVGIGYNGMPNGCSDDVLPW [DCTD] the same measures were 3.46 ± 0.35 and 3.56 ± 0.15.
In the case of IEAKEACDWLRATGFPQYAQLYED [DLC1], the protein stability index was found to be 3.21 ± 0.43 under setting [1] and 3.31 ± 0.083 under setting [2].
For LKLSIMSEEELTHIFGDLDSYIPL [NET1], in that order: 2.21 ± 0.1 and 2.28 ± 0.2.
In the case of LYFKDKIFNVAIPRFHMACPTFRV [FBXO3], the protein stability index reads like this: under setting [1], 2.98 ± 0.92; under setting [2], 2.65 ± 0.68.
For LDAVENQLKWASWELHSLRHCDDD [ZNF24] the same measures were 3.96 ± 0.12 and 4.03 ± 0.15.
In the case of SSVQSYPGSASLAQSRLEDPGADS [DLX1], the protein stability index is, setting by setting: under setting [1], 5.23 ± 0.2; under setting [2], 5.52 ± 0.24.
For FYSAYLVAEKVVVITKHNDDEQYA [HSP90AB1], in that order: 2.18 ± 0.23 and 2.11 ± 0.43.
For PVESHIQKNKKILKSAKDLPPDAL [KMT2E], the protein stability index is, setting by setting: under setting [1], 4.86 ± 0.24; under setting [2], 4.71 ± 0.44.
For KQQLVDAFLKLAKQRSVCTWGKNK [FAN1], in that order: 2.31 ± 0.21 and 2.25 ± 0.16.
For ATGKHYGASSCDGCKGFFRRSVRK [HNF4A], in that order: 3.35 ± 0.19 and 3.73 ± 0.21.
For VRANDINYQDQIPRTLEEFVGFH [FEM1B], the protein stability index by setting is: (treatment: DMSO, c terminus: native) 3.21 ± 0.16; (treatment: MLN4924 1 uM, 8 h, c terminus: native) 3.2 ± 0.48.
For ESEDCKLPCNPCATTNASGNSCGP [KRT34], the protein stability index was found to be 5.21 ± 0.12 under setting [1] and 5.25 ± 0.17 under setting [2].
With LKKMGKRLDYLNLKGARLTVEQGC [FBXO39], the protein stability index under setting [1] is 2.62 ± 0.34 and the protein stability index under setting [2] is 2.67 ± 0.28.
For FEDEVKRLGWQQQAELQELEERLQ [MTUS2] the same measures were 4.17 ± 0.4 and 4.28 ± 0.54.
For KAQRDYELKKAAYDIEVNTRRAQA [FLOT1], in that order: 4.17 ± 0.11 and 4.44 ± 0.085.
For SKIGFGILLSKEPDGVWAYNRGEH [SMAD6], in that order: 2.43 ± 0.25 and 2.71 ± 0.15.
Regarding VVFPYTSKSCMRAVLEYLYTGMFT [RHOBTB2], the protein stability index by setting is: under setting [1], 2.81 ± 0.42; under setting [2], 2.77 ± 1.1.
For WTMQAYERNFWDPSPQLDTQQEIK [WDR41] the same measures were 3.16 ± 0.19 and 3.46 ± 0.47.
For DTHNTNNLDTEELCEYFSQHLGEY [NECAB1] the same measures were 4.41 ± 0.36 and 4.17 ± 0.33.
For ICRVFSTSPAKDSLSFEDFLDLLS [CIB1] the same measures were 2.34 ± 0.25 and 2.2 ± 0.1.
For EVSADDETPNPPQSAQIACSSPSV [MAGEA10], the protein stability index runs as follows: under setting [1], 5.57 ± 0.28; under setting [2], 5.42 ± 0.21.
In the case of EAKEAKGSGYEKLGPSRDPDPLNI [RTP4], the protein stability index under setting [1] is 4.9 ± 0.21 and the protein stability index under setting [2] stood at 4.91 ± 0.18.
For YKFDPKTKRILTLQKANSWFNCRK [MMP1], in that order: 2.67 ± 0.27 and 2.54 ± 0.28.
For CIKIWDVTSQATLLTITKAHSNAI [WDR88], in that order: 2.28 ± 0.33 and 2.61 ± 0.28.
In turn, SPSNVQKWLLWTEHQYRLPPMGKA [SPDEF] showed a protein stability index under setting [1] of 2.42 ± 0.2 and a protein stability index under setting [2] of 2.61 ± 0.19.
In turn, HEAFKDELKTFRLKTRSWAGERSR [CDC25B] gave a protein stability index under setting [1] of 3.57 ± 0.3 and a protein stability index under setting [2] of 3.8 ± 0.22.
For ILVTKVEEPSKYGVVVCEADTGRI [GMPPB], in that order: 2.75 ± 0.18 and 2.91 ± 0.22.
For ALWCAAGAGHFEVVKLLVSHGANV [FEM1B] the same measures were 2.51 ± 1.3 and 2.37 ± 0.26.
In the case of RPRRRDGPEHATRLNGTAKGERRR [DVL3], the protein stability index is, setting by setting: under setting [1], 5.06 ± 0.38; under setting [2], 5.08 ± 0.42.
For GEEAVTLVEDMQRELGRLRQQVTN [ZNF263] the same measures were 4.1 ± 0.14 and 4.02 ± 0.29.
For QYLALPERAELAASLGLTQTQVKI [DLX1], in that order: 2.95 ± 0.33 and 3.03 ± 0.22.
For SLKDHKVSFLRSGTKLIFRRRPRQ [C2CD2L], in that order: 3.24 ± 0.49 and 3.44 ± 0.55.
Regarding WLLTHLLWFANAHLLSWFSPTIIF [DHCR7], the protein stability index was found to be 3.36 ± 0.17 under setting [1] and 2.96 ± 0.3 under setting [2].
As to GIVVWNMDVERQETPEWLDSDSCQ [WDFY2], the protein stability index is, setting by setting: under setting [1], 3.3 ± 0.2; under setting [2], 3.5 ± 0.32.
In the case of TPLLNGSSQDRMFETMAIEIEQLL [GOSR1], the protein stability index under setting [1] is 3.06 ± 0.27 and the protein stability index under setting [2] came out at 3.28 ± 0.23.
For NWLHRRLAGQFLEELRKFSSLCYK [MOG], in that order: 2.5 ± 0.15 and 2.57 ± 0.27.
For MMEEIDRFQDPAAASISDGDCDAR [FAM219A], in that order: 5.38 ± 0.16 and 5.42 ± 0.11.
Sequence KRGFEVVYMTEPIDEYCVQQLKEF [HSP90AB1] came in with a protein stability index under setting [1] of 2.56 ± 0.35.
As to LRVEQKDFPAHRIVLAACSDYFCA [KLHL12], the protein stability index by setting is: under setting [1], 2 ± 0.44; under setting [2], 2.07 ± 0.29.
Regarding QFYGYLSQQQNMMQDYVRTGTYQR [CARM1], the protein stability index is, setting by setting: under setting [1], 2.47 ± 0.086; under setting [2], 2.72 ± 0.22.
Sequence PPRTIKRTRRRLSRNRDPGRLILS [PWWP2B] came in with a protein stability index under setting [1] of 4.37 ± 0.27 and a protein stability index under setting [2] of 4.52 ± 0.35.
For YRYCCKLNKKLKSYSLSRKKIVHY [CDC14A] the same measures were 2.27 ± 0.38 and 2.25 ± 0.53.
For DQDPSVLYFSIHRYEQGRFWPHLK [HDAC6], in that order: 2.25 ± 0.41 and 2.16 ± 0.28.

Values taken from the supplement of paper PMC10567573.
